For one substance, improvement of the IC50 of inhibition of KLHDC2 di-Gly substrate ubiquitylation, SJ46421-BRD3^BD2 against SJ46421 alone (orders-of-magnitude) results are on record in PMC11470957, “Principles of paralog-specific targeted protein degradation engaging the C-degron E3 KLHDC2” (Nature Communications, 2024).

The target in this test is KLHDC2 substrate binding domain (KLHDC2^SBD, 15-361) (UniProt Q9Y2U9).
KLHDC2 substrate binding domain (KLHDC2^SBD, 15-361), sequence (Q9Y2U9 15-361): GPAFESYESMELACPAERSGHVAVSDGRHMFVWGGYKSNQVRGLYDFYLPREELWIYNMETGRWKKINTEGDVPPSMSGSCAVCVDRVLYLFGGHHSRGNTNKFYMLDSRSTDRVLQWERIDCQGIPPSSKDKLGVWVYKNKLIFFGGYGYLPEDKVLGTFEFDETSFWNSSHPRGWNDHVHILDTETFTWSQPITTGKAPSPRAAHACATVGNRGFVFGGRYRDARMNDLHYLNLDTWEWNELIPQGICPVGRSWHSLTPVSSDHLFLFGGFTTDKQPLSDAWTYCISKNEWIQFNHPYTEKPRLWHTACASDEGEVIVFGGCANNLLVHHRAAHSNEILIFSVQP

“BRD3^BD2 (second bromodomain of BRD3, residues 306-416) (from UniProt Q15059 306-416) (domain or fragment)” registered an improvement of the IC50 of inhibition of KLHDC2 di-Gly substrate ubiquitylation, SJ46421-BRD3^BD2 against SJ46421 alone (orders-of-magnitude) of 2.
